Laboratory results reported in patent publication US20130260455A1 (ONCOMED PHARMACEUTICALS, published 2013).

Key:
[1] = biological target: T1, recombinant mouse Notch2 (EGF10-15) (mouse, UniProt O35516 375-605); test: Biacore SPR
T1 construct: domain: EGF10-15; also called mNotch2; m-Notch2
T1 sequence (looked up): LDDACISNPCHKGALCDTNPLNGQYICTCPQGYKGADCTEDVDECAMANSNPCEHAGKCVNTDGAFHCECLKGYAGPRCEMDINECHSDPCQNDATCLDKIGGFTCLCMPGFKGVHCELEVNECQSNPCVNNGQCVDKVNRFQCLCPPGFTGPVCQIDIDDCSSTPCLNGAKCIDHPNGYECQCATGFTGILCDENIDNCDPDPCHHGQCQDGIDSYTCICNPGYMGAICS

[2] = biological target: T2, recombinant mouse Notch3 (EGF9-14) (mouse, UniProt Q61982 352-581); test: Biacore SPR
T2 construct: domain: EGF9-14; also called mNotch3; m-Notch3
T2 sequence (looked up): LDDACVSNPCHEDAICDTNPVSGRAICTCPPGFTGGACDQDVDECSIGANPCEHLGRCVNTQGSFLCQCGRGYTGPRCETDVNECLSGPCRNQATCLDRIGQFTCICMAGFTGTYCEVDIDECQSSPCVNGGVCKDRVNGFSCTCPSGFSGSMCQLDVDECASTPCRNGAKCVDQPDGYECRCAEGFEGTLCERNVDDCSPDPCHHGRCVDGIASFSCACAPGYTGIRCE

[3] = biological target: T3, recombinant human Notch3 (EGF9-14) (human, UniProt Q9UM47 351-580); test: Biacore SPR
T3 construct: The whole entry for hNotch3 is named here; also called hNotch3; h-Notch3
T3 sequence: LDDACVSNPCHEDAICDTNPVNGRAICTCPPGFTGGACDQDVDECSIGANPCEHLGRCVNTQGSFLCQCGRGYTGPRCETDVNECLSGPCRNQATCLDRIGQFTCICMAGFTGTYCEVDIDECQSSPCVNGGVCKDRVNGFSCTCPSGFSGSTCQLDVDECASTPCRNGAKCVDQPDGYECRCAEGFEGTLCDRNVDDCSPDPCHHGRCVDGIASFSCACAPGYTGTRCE

[4] = biological target: T4, human Notch2 as used in the Biacore analysis of Table 6 (construct not stated) (human, UniProt Q04721 375-605, limits assumed); test: Biacore SPR
T4 construct: also called h-Notch2
T4 sequence: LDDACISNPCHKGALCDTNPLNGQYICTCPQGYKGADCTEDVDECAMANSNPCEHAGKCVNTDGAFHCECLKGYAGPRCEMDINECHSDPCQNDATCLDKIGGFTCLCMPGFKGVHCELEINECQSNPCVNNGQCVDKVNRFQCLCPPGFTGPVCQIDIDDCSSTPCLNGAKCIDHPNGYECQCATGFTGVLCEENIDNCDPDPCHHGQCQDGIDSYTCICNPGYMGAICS

[5] = biological target: T1, recombinant mouse Notch2 (EGF10-15); test: Biacore 2000 SPR; Notch protein amine-coupled to CM5 chip, antibody 1-100 nM injected
Method: (§1) The affinities for human and mouse Notch1, Notch2, Notch3, and Notch4 were determined using a Biacore 2000 instrument. Briefly, recombinant human and mouse Notch proteins (EGF10-15 for Notch1, 2, & 4; EGF9-14 for Notch3) were immobilized on a CM5 chip using standard amine based chemistry (NHS/EDC). For hNotch2. EGF1-12 was also tested for binding. Different antibody concentrations (1-100 nM) were injected over the protein surfaces and kinetic data were collected over time. The data was fit using the simultaneous global fit equation to yield dissociation constants (KD, nM) for each Notch (Table 3).

[6] = biological target: T5, recombinant human Notch2 (EGF1-12) (human, UniProt Q04721 26-493); test: as above
T5 construct: also called hNotch2 *N2(EGF1-12)
T5 sequence: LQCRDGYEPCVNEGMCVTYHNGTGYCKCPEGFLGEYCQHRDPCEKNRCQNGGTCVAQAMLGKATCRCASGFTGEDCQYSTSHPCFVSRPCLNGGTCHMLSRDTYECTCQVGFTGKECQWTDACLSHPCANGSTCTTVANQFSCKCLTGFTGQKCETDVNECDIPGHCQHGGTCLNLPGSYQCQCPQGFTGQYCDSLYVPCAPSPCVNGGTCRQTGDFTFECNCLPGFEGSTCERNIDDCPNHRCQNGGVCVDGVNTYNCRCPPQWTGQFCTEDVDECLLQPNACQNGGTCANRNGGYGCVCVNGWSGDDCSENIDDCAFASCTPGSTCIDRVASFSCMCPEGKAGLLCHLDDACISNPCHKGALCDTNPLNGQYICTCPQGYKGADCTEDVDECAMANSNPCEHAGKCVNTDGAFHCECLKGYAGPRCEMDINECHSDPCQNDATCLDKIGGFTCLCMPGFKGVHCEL
Method: as §1

[7] = biological target: T6, recombinant human Notch2 (EGF10-15) (human, UniProt Q04721 375-605); test: as above
T6 construct: The whole entry for hNotch2 is named here; also called hNotch2 **N2(EGF 10-155)
T6 sequence: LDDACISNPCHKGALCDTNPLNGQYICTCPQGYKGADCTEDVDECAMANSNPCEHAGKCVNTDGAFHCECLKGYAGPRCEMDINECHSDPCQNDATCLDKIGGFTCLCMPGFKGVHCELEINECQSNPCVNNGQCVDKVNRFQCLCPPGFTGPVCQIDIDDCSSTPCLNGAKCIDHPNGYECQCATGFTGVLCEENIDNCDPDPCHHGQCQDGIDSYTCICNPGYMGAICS
Method: as §1

[8] = biological target: T3, recombinant human Notch3 (EGF9-14); test: as above
Method: as §1

[9] = biological target: T7, mutant hNotch2 missing amino acids 375-412 (EGF repeat 10 deleted), on transfected cells (human, UniProt Q04721 26-2471); test: FACS on HEK-293 cells transiently transfected with human Notch2 Δaa 375-412 (EGF 10) and GFP
T7 construct: also called hNotch2 in the absence of EGF10
Method: FACS analysis of HEK-293 cells transiently transfected with the indicated Notch expression plasmid and GFP as a transfection control. GFP positive cells indicate expression of the transgene. Anti-Notch2 (59M70) was added at 20 μg/ml and detected by PE-conjugated goat anti-mouse (Caltag, #3004-4). 59R1 (IgG2) was added to the cells at 2 μg/ml and detected by PE-conjugated goat anti-human Fc gamma specific (Jackson Immunochemicals). Ligand binding was determined by incubation of the cells with human DLL4 extracellular domain (ECD) fused to rabbit IgG constant region at 5 μg/ml and detected by PE-conjugated donkey anti-rabbit.

[10] = biological target: T8, recombinant human Notch1 (EGF10-15) (human, UniProt P46531 372-601); test: Biacore 2000 SPR; Notch protein amine-coupled to CM5 chip, antibody 1-100 nM injected; Table 3: Biacore 2000, hNotch1 EGF10-15 on CM5 chip, antibody 1-100 nM; fitted KD
T8 construct: The whole entry for hNotch1 is named here; also called hNotch1; h-Notch1
Method: as §1

B1: 59R1 IgG2 antibody (antibody, V domains shown)
VH: QVQLVESGGGLVQPGGSLRLSCAASGFTFSSSGMSWVRQAPGKGLEWVSVIASSGSNTYYADSVKGRFTISRDNSKNTLYLQMNSLRAEDTAVYYCARGIFFAIWGQGTLVTVSS
VL: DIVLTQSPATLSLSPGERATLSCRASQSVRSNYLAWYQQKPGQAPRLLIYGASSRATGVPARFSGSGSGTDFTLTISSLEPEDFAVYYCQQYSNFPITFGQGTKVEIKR
notes: Human IgG2/kappa made in CHO cells; also called anti-Notch2/3 antibody 59R1
B1 was tested, and the Kd [1] was 0.65 nM, the Kd [2] was 0.32 nM and the Kd [3] was 0.19 nM. For the same binder, the Kd [4] was 0.05 nM, the Kd [5] was 0.35 nM and the Kd [6] was under 0.1 nM. For the same binder, the Kd [7] was under 0.1 nM, the Kd [8] was 0.12 nM and the binding result [9] was “no binding (tested: 2 ug/ml)”. For the same binder, the Kd [10] was 86.4 nM.
